The source of these data is publication PMC4007455.

Assay [1] has as its target RNA polymerase II in isolated early elongation complexes (human (endogenous in HeLa)) (UniProt P24928).
The target is the same in assay [2]. The source holds these as a separate data set.

Regarding “Gdown1 CTD(197–368) (from UniProt P0CAP2-1 197-368) (domain or fragment)”, the amount of Gdown1 CTD titrated onto EECs that completely blocks elongation stimulation by 0.1 pmol TFIIF, in vitro transcription, 7-min chase in assay [1] amounted to 20 pmol.
As to “Gdown1 ΔLPDKG deletion mutant (from UniProt P0CAP2-1 1-368) (natural protein)”, in assay [2], the block of TFIIF (0.1 pmol)-dependent runoff by 1 pmol ΔLPDKG mutant, in vitro transcription on isolated EECs, 7-min chase (blocks TFIIF acting on Pol II) stood at 90%; the termination region as percent of total counts with TTF2 (0.04 pmol) and 1 pmol ΔLPDKG mutant (72% with TTF2 alone), in vitro transcription on isolated EECs (blocks TTF2 acting on Pol II) (% of the total counts) amounted to 50.
